Results as given in PMC9896810, “Crk proteins activate the Rap1 guanine nucleotide exchange factor C3G by segregated adaptor-dependent and -independent mechanisms” (Cell Communication and Signaling : CCS, 2023).

What was measured:
C3G-AAPA = target: T1, C3G-AAPA (human, UniProt Q13905-1 4-1077, P283A | P284A | L286 | P287 | P289A | P453A | P454A | L456A | P457A | K459A | …); assay: ITC; single-PRM mutant of C3G in the cell titrated with CrkL or CrkL-SH3N, 25 °C, 300 mM NaCl, pH 7.5; SEDPHAT, 1:1 heteroassociation model; N is the competent fraction of C3G; details: both partners purified
T1 construct: human C3G isoform a, residues 4-1077; only P3 kept, P1, P2 and P4 mutated to Ala; source: E. coli BL21 (DE3), purified (IMAC, TEV digestion, reversed IMAC, SEC); not shown: His, N-terminal, cleaved; Halo, N-terminal, cleaved
T1 sequence (looked up): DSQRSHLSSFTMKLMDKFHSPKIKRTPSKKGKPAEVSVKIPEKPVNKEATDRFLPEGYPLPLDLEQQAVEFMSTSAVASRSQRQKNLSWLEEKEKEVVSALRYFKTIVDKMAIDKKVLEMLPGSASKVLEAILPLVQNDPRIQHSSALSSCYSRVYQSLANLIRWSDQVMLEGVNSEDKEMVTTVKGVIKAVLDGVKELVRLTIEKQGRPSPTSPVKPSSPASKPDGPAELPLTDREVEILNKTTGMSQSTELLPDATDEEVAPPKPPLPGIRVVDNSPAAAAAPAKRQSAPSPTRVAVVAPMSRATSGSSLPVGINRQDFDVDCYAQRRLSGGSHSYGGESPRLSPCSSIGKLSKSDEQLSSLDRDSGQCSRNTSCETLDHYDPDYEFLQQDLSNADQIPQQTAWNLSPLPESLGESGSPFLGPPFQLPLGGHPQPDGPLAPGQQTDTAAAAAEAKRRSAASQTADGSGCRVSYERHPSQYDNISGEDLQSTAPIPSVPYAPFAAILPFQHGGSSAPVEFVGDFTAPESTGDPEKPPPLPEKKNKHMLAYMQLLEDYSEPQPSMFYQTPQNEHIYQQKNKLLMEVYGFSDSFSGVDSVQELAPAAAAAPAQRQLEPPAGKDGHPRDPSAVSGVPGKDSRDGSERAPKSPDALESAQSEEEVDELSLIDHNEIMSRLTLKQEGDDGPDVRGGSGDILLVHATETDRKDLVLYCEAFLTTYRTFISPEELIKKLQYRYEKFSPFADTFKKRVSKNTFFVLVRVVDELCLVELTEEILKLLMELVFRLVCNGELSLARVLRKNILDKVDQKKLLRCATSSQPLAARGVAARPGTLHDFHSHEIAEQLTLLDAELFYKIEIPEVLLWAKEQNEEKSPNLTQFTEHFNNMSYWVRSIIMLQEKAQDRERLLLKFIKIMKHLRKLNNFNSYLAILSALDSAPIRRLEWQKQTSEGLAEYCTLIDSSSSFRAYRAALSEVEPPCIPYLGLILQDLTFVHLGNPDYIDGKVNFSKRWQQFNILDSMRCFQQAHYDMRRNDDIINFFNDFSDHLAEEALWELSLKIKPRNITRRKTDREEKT

C3G-PAAA = target: T2, C3G-PAAA (human, UniProt Q13905-1 4-1077, P453A | P454A | L456A | P457A | K459A | P540A | P541A | L543A | P544A | K546A | …); assay: as above; details: both partners purified
T2 construct: human C3G isoform a, residues 4-1077; only P1 kept, P2, P3 and P4 mutated to Ala; source: E. coli BL21 (DE3), purified (IMAC, TEV digestion, reversed IMAC, SEC); not shown: His, N-terminal, cleaved; Halo, N-terminal, cleaved
T2 sequence (looked up): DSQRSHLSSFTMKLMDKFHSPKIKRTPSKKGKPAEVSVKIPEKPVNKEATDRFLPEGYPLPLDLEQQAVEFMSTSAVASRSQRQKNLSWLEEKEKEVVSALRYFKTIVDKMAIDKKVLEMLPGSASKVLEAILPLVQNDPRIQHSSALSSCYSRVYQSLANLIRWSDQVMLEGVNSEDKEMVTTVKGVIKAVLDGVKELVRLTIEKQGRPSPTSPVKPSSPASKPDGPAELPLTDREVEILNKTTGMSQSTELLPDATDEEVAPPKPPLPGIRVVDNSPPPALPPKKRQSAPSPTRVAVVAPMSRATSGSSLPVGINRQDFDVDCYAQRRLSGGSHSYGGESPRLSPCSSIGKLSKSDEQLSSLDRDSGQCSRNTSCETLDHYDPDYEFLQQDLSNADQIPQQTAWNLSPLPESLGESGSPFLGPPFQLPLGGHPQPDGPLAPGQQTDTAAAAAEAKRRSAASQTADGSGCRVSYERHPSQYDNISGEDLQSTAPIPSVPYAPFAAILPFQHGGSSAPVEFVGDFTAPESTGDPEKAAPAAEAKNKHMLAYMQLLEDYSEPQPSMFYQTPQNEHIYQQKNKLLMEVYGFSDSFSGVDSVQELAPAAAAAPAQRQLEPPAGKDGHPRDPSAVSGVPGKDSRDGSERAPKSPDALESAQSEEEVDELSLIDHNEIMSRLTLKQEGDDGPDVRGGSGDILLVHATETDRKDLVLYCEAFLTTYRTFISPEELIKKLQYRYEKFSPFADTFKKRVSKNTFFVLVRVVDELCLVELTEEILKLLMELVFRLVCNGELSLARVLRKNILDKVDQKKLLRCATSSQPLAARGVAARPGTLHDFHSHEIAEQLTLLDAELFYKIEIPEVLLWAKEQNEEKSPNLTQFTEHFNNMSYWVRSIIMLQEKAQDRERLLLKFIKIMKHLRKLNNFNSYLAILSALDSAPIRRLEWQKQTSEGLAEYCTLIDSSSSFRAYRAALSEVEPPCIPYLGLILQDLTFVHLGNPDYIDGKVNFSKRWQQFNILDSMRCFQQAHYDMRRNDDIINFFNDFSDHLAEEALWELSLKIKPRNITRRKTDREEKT

B1: CrkL (full-length) (natural protein, human, UniProt P46109 1-303, looked up)
chain: MSSARFDSSDRSAWYMGPVSRQEAQTRLQGQRHGMFLVRDSSTCPGDYVLSVSENSRVSHYIINSLPNRRFKIGDQEFDHLPALLEFYKIHYLDTTTLIEPAPRYPSPPMGSVSAPNLPTAEDNLEYVRTLYDFPGNDAEDLPFKKGEILVIIEKPEEQWWSARNKDGRVGMIPVPYVEKLVRSSPHGKHGNRNSNSYGIPEPAHAYAQPQTTTPLPAVSGSPGAAITPLPSTQNGPVFAKAIQKRVPCAYDKTALALEVGDIVKVTRMNINGQWEGEVNGRKGLFPFTHVKIFDPQNPDENE
notes: human CrkL, residues 1-303, in pETEV15b; also called Crk-like protein; source: E. coli BL21 (DE3), purified (IMAC, TEV digestion, SEC); not shown: His, N-terminal, cleaved
C3G-AAPA
  Kd: 2100 nM
C3G-PAAA
  Kd: 900 nM
  stoichiometry N: 0.86
